Laboratory results reported in patent publication US20240010684A1 (Bayer, published 2024).
Each block holds one binder with its values, some of them ahead of it. Bridges are numbered along the chain shown (N, C = ends). Where no end group is shown, it is not given here. [ ]: non-standard residue; d: D form. Oic = O=C(O)[C@@H]1C[C@@H]2CCCC[C@@H]2N1; tBuAla = CC(C)(C)C[C@H](N)C(=O)O; Pen = CC(C)(S)[C@H](N)C(=O)O; NMeC = CN[C@@H](CS)C(=O)O; Orn = NCCC[C@H](N)C(=O)O; Dap = NC[C@H](N)C(=O)O; PEG2 = NCCOCCOCCC(=O)O; Ahx = NCCCCCC(=O)O

Tests used:
[1] = biological target: recombinant human MASP2 (amino acids 297-686, C-terminal His Tag) (human, UniProt O00187 297-686); assay: cell-based or functional assay
Sequence of recombinant human MASP2 (amino acids 297-686, C-terminal His Tag) (O00187 other isoform, or with tags, fused parts or gaps limits assumed): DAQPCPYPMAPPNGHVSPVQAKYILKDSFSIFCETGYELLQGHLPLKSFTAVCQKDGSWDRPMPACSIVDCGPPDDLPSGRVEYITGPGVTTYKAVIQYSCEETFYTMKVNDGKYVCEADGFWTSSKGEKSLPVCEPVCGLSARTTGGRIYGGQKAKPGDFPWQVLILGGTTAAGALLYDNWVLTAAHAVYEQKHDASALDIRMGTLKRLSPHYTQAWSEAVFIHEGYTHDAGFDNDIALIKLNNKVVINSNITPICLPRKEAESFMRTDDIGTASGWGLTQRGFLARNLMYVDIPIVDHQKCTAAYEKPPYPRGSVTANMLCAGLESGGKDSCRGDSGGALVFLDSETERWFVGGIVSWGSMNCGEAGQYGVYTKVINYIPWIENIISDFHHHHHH

[2] = biological target: T1, recombinant human MASP1 (amino acids 297-699, C-terminal His Tag) (human, UniProt P48740 297-699); assay: cell-based or functional assay
T1 sequence: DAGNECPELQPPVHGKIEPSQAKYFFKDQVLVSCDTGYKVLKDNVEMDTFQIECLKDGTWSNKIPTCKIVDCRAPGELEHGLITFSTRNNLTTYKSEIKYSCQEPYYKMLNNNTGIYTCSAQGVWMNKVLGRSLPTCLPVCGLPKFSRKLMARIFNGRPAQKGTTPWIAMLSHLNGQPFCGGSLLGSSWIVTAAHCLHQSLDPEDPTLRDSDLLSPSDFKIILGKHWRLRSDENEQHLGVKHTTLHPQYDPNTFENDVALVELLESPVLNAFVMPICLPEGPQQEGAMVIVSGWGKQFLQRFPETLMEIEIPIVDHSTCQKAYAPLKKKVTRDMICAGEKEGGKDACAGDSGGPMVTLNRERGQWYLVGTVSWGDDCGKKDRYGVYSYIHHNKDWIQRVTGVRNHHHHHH

Binder: cyclo([PEG2]GICSRSLPPICIPD) (disulfide 4-12; also: TFA salt) [Example 24: (PEG1(10 atoms))**-GIC+SRSLPPIC+IPD**]
human MASP2 IC50 [1]: 210 nM | human MASP1 IC50 [2]: 110 nM

Binder: cyclo([Ahx]AICSRSLP[Oic]ICIP) (disulfide 4-12; also: TFA salt) [Example 25: (Ahx)**-AIC+SRSLP-(Oic)-IC+IP**]
human MASP2 IC50 [1]: 610 nM | human MASP1 IC50 [2]: 60 nM

Binder: cyclo(AGAICSRS[tBuAla]PPI[Pen]IPD) (disulfide 5-13; also: TFA salt) [Example 26: A**GAIC+SRS-((tBu)A)-PPI-(Pen)+-IPD**]
human MASP2 IC50 [1]: 170 nM | human MASP1 IC50 [2]: 12 nM

B1: Example 21: G**SGIC+SRSLPPIC+IPDS** (peptide)
peptide: cyclo(GSGICSRSLPPICIPDS)
modifications: disulfide 5-13; not fully specified; printed as G**SGIC+SRSLPPIC+IPDS**; also: TFA salt
human MASP2 IC50 [1]: 120 nM | human MASP1 IC50 [2]: 170 nM

Binder: [Dap]GGICSRSLPPICIPD (lactam 1-C; disulfide 5-13; also: TFA salt) [Example 20: (Dap)++-GGIC+SRSLPPIC+IPD**]
human MASP2 IC50 [1]: 110 nM | human MASP1 IC50 [2]: 55 nM

Binder: KGICSRSLPPICIPD (lactam 1-C; disulfide 4-12; also: TFA salt) [Example 22: K++GIC+SRSLPPIC+IPD**]
human MASP2 IC50 [1]: 91 nM | human MASP1 IC50 [2]: 190 nM

Binder: cyclo(AGGICSRSLPPICIPD) (disulfide 5-13; also: TFA salt) [Example 18: A**GGIC+SRSLPPIC+IPD**]
human MASP2 IC50 [1]: 15 nM | human MASP1 IC50 [2]: 50 nM

Binder: cyclo(AGGICSRS[tBuAla]PPI[Pen]IPD) (disulfide 5-13; also: TFA salt) [Example 29: A**GGIC+SRS-((tBu)A)-PPI-(Pen)+-IPD**]
human MASP2 IC50 [1]: 68 nM | human MASP1 IC50 [2]: 8.6 nM

Binder: cyclo([dA]GGICSRSLPPICIPD) (disulfide 5-13; also: TFA salt) [Example 19: a**GGIC+SRSLPPIC+IPD**]
human MASP2 IC50 [1]: 210 nM | human MASP1 IC50 [2]: 49 nM

Binder: cyclo([Dap][Dap]GICSRSLPPICIPD) (disulfide 5-13; also: TFA salt) [Example 23: (Dap)**-(Dap)-GIC+SRSLPPIC+IPD**]
human MASP2 IC50 [1]: 20 nM | human MASP1 IC50 [2]: 180 nM

Binder: cyclo([Ahx]AICSRS[tBuAla]PPI[Pen]IPD) (disulfide 4-12; also: TFA salt) [Example 27: (Ahx)**-AIC+SRS-((tBu)A)-PPI-(Pen)+-IPD**]
human MASP2 IC50 [1]: 37.5 nM | human MASP1 IC50 [2]: 9.1 nM

Results, then the binder that gave them:

human MASP2 IC50 [1]: 63.5 nM | human MASP1 IC50 [2]: 22 nM
Binder: cyclo([Ahx]AICSRS[tBuAla]PPI[NMeC]IPD) (disulfide 4-12; also: TFA salt) [Example 32: (Ahx)**-AIC+SRS-((tBu)A)-PPI-((N-Me)C)+-IPD**]

human MASP2 IC50 [1]: 760 nM | human MASP1 IC50 [2]: 5 nM
Binder: cyclo([Dap][Dap]ICSRS[tBuAla]PPI[Pen]IP) (disulfide 4-12; also: TFA salt) [Example 97: (Dap)**-(Dap)-IC+SRS-((tBu)A)-PPI-(Pen)+-IP**]

human MASP2 IC50 [1]: 98 nM | human MASP1 IC50 [2]: 11 nM
Binder: cyclo([PEG2]AICSRS[tBuAla]PPI[Pen]IPD) (disulfide 4-12; also: TFA salt) [Example 34: (PEG1(10 atoms))**-AIC+SRS-((tBu)A)-PPI-(Pen)+-IPD**]

human MASP2 IC50 [1]: 140 nM | human MASP1 IC50 [2]: 16 nM
Binder: GAICSRSLPPICIPD-NH2 (disulfide 4-12; lactam N-15; also: TFA salt) [Example 37: G**AIC+SRSLPPIC+IPD++-NH2]

human MASP2 IC50 [1]: 400 nM | human MASP1 IC50 [2]: 23 nM
Binder: cyclo([Orn]GICSRS[tBuAla]PPI[Pen]IP) (disulfide 4-12; also: TFA salt) [Example 96: (Orn)**-GIC+SRS-((tBu)A)-PPI-(Pen)+-IP**]
